In patent US20240034757A1 (OXFORD UNIVERSITY INNOVATION, published 2024):
Positions count from the first letter of the chain named.

T1: CXCL9_HUMAN (human, UniProt Q07325 23-125)
T1 sequence: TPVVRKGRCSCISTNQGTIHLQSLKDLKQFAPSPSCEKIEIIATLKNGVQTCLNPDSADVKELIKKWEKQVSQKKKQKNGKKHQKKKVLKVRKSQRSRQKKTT

T2: CXCL10_HUMAN (human, UniProt P02778 22-98)
T2 sequence: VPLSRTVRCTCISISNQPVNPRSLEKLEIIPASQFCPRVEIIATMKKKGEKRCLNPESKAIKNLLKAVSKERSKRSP

T3: CXCL11_HUMAN (human, UniProt O14625 22-94)
T3 sequence: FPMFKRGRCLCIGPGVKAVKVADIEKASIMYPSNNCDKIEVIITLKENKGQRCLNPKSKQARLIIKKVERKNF

T4: CXCL13_HUMAN (human, UniProt O43927 23-109)
T4 sequence: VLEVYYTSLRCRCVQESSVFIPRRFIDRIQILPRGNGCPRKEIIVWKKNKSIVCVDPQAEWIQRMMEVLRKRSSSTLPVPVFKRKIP

T5: CXCL14_HUMAN (human, UniProt O95715 35-111)
T5 sequence: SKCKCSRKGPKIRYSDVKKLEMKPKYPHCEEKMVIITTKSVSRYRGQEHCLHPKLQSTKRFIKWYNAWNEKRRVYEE

T6: CXCL3_HUMAN (human, UniProt P19876 35-107)
T6 sequence: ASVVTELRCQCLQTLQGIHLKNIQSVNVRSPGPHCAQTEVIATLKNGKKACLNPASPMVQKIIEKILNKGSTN

T7: CXCL2_HUMAN (human, UniProt P19875 35-107)
T7 sequence: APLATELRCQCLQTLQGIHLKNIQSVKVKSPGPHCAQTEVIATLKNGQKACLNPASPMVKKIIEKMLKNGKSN

T8: CXCL6_HUMAN (human, UniProt P80162 38-114)
T8 sequence: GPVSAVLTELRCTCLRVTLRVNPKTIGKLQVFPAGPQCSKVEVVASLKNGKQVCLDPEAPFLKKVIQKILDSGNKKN

T9: CXCL1_HUMAN (human, UniProt P09341 35-107)
T9 sequence: T7 sequence with P2S, L3V, L20P, K27N, Q48R, M58I, K68N, N69S, G70D

T10: CXCL8_HUMAN (human, UniProt P10145 28-99)
T10 sequence: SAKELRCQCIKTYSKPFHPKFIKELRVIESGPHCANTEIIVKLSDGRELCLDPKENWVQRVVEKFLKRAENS

T11: P1095_IXORI (Ixodes ricinus, UniProt A0A0K8RCE3 24-112)
T11 sequence: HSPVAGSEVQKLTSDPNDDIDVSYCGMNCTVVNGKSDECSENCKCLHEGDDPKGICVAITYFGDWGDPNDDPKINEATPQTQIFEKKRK

T12: P1096_IXORI (Ixodes ricinus, UniProt A0A0K8RKE4 24-114)
T12 sequence: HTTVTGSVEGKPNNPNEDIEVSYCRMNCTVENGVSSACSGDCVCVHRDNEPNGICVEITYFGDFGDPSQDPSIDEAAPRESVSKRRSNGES

T13: P1127_IXORI (Ixodes ricinus, UniProt A0A0K8RJ67 29-108)
T13 sequence: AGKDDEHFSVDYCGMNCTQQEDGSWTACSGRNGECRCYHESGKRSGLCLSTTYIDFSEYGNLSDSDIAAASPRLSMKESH

T14: P1128_IXORI (Ixodes ricinus, UniProt A0A0K8R6B3 19-90)
T14 sequence: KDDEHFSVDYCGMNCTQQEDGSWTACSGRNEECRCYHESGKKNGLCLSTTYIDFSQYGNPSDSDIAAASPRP

T15: P1132_IXORI (Ixodes ricinus, UniProt V5GZ08 29-106)
T15 sequence: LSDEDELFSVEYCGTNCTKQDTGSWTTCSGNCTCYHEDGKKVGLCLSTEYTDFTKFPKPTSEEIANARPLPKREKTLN

T16: P1134_IXORI (Ixodes ricinus, UniProt A0A0K8RAI0 32-135)
T16 sequence: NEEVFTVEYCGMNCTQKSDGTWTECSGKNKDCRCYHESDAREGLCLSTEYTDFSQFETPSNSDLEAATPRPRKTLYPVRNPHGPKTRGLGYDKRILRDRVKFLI

T17: P1142_AMBCA (Amblyomma cajennense, UniProt A0A023FBW4 26-97)
T17 sequence: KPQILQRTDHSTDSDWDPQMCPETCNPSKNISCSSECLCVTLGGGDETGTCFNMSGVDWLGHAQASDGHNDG

T18: P1162_IXORI (Ixodes ricinus, UniProt A0A0K8RDJ1 29-99)
T18 sequence: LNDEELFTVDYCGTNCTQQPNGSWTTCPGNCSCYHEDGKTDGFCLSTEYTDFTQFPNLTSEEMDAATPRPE

T19: P1166_IXORI (Ixodes ricinus, UniProt A0A0K8RE99 25-110)
T19 sequence: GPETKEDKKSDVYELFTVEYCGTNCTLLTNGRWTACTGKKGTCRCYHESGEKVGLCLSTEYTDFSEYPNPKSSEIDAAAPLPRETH

T20: P1168_IXORI (Ixodes ricinus, UniProt A0A0K8RCU3 25-106)
T20 sequence: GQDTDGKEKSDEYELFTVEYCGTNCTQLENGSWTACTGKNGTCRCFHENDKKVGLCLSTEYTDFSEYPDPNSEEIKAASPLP

T21: P1170_IXORI (Ixodes ricinus, UniProt A0A0K8RD51 29-102)
T21 sequence: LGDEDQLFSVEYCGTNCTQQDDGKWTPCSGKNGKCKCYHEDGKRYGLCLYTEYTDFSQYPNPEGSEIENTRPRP

T22: P1174_IXORI (Ixodes ricinus, UniProt V5I3C5 28-104)
T22 sequence: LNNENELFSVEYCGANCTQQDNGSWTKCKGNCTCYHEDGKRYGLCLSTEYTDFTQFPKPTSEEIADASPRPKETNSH

T23: P1229_IXORI (Ixodes ricinus, UniProt A0A0K8R4R9 32-108)
T23 sequence: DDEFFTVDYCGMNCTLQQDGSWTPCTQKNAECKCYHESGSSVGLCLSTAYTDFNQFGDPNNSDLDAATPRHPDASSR

T24: P1156_IXORI (Ixodes ricinus, UniProt V5HBW0 29-108)
T24 sequence: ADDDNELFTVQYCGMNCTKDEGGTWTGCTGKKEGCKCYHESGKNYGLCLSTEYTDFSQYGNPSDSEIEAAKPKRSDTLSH

B1: P1172_IXORI (other)
chain: T18 sequence with N2H, D3E, E4D, L6I, Q18K, P20S
B2: CXCL4_HUMAN (ligand)
chain: EAEEDGDLQCLCVKTTSQVRPRHITSLEVIKAGPHCPTAQLIATLKNGRKICLDLQAPLYKKIIKKLLES

Tests used:
CXCL9_HUMAN = biological target: T1, CXCL9_HUMAN; assay: BLI
CXCL10_HUMAN = biological target: T2, CXCL10_HUMAN; assay: BLI
CXCL11_HUMAN = biological target: T3, CXCL11_HUMAN; assay: BLI
CXCL12_HUMAN = CXCL12_HUMAN (human, UniProt P48061 22-89); assay: BLI
CXCL13_HUMAN = biological target: T4, CXCL13_HUMAN; assay: BLI
CXCL14_HUMAN = biological target: T5, CXCL14_HUMAN; assay: BLI
CXCL3_HUMAN = biological target: T6, CXCL3_HUMAN; assay: BLI [Cont.]
CXCL2_HUMAN = biological target: T7, CXCL2_HUMAN; assay: BLI [Cont.]
CXCL6_HUMAN = biological target: T8, CXCL6_HUMAN; assay: BLI [Cont.]
CXCL1_HUMAN = biological target: T9, CXCL1_HUMAN; assay: yeast surface display FACS re-test; further: test concentration or dose not given here
CXCL8_HUMAN = biological target: T10, CXCL8_HUMAN; assay: yeast surface display FACS re-test; further: test concentration or dose not given here
P1080_IXORI = P1080_IXORI (Ixodes ricinus, UniProt A0A090XBL6 20-118); assay: BLI [Cont.]
P1095_IXORI = biological target: T11, P1095_IXORI; assay: BLI [Cont.]
P1096_IXORI = biological target: T12, P1096_IXORI; assay: BLI [Cont.]
P1127_IXORI = biological target: T13, P1127_IXORI; assay: BLI [Cont.]
P1128_IXORI = biological target: T14, P1128_IXORI; assay: BLI [Cont.]
P1132_IXORI = biological target: T15, P1132_IXORI; assay: BLI [Cont.]
P1134_IXORI = biological target: T16, P1134_IXORI; assay: BLI [Cont.]
P1142_AMBCA = biological target: T17, P1142_AMBCA; assay: BLI [Cont.]
P1162_IXORI = biological target: T18, P1162_IXORI; assay: BLI [Cont.]
P1166_IXORI = biological target: T19, P1166_IXORI; assay: BLI [Cont.]
P1168_IXORI = biological target: T20, P1168_IXORI; assay: BLI [Cont.]
P1170_IXORI = biological target: T21, P1170_IXORI; assay: BLI [Cont.]
P1172_IXORI = biological target: B1; assay: BLI [Cont.]
P1174_IXORI = biological target: T22, P1174_IXORI; assay: BLI [Cont.]
P1229_IXORI = biological target: T23, P1229_IXORI; assay: BLI [Cont.]
P1156_IXORI = biological target: T24, P1156_IXORI; assay: BLI [Cont.) C]

Chain of CXCL12_HUMAN (P48061 22-89 limits assumed): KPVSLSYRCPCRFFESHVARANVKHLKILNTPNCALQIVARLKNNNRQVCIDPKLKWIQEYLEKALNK
Chain of P1080_IXORI (A0A090XBL6 20-118): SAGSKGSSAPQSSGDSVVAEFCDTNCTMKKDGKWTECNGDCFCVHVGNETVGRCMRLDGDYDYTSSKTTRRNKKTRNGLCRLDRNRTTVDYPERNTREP

B1
binding result (CXCL9_HUMAN): no binding (tested: 300 nM) | binding result (CXCL10_HUMAN): no binding (tested: 300 nM) | binding result (CXCL11_HUMAN): no binding (tested: 300 nM) | binding result (CXCL12_HUMAN): no binding (tested: 300 nM) | binding result (CXCL13_HUMAN): no binding (tested: 300 nM) | binding result (CXCL14_HUMAN): no binding (tested: 300 nM) | binding result (CXCL3_HUMAN): no binding (tested: 300 nM) | Kd (CXCL2_HUMAN): 26 nM | binding result (CXCL6_HUMAN): no binding (tested: 300 nM) | % cells over threshold fluorescence (CXCL1_HUMAN): 65% | % cells over threshold fluorescence (CXCL8_HUMAN): 41%

B2
Kd (P1080_IXORI): 2310 nM | binding result (P1095_IXORI): no binding (tested: 300 nM) | binding result (P1096_IXORI): no binding (tested: 300 nM) | binding result (P1127_IXORI): no binding (tested: 300 nM) | binding result (P1128_IXORI): no binding (tested: 300 nM) | binding result (P1132_IXORI): no binding (tested: 300 nM) | binding result (P1134_IXORI): no binding (tested: 300 nM) | Kd (P1142_AMBCA): 381 nM | binding result (P1162_IXORI): no binding (tested: 300 nM) | binding result (P1166_IXORI): no binding (tested: 300 nM) | binding result (P1168_IXORI): no binding (tested: 300 nM) | binding result (P1170_IXORI): no binding (tested: 300 nM) | binding result (P1172_IXORI): no binding (tested: 300 nM) | binding result (P1174_IXORI): no binding (tested: 300 nM) | binding result (P1229_IXORI): no binding (tested: 300 nM) | binding result (P1156_IXORI): no binding (tested: 300 nM)
